Assay results from article PMC7264293 (2020).

target: T1, WIPI3-Δloop (human, UniProt Q5MNZ6 1-344, Blade 2 B-C loop (75-80) deleted | Blade 6 C-D loop (264-281) deleted); assay: ITC
T1 sequence (Q5MNZ6 other isoform, or with tags, fused parts or gaps with the stated changes): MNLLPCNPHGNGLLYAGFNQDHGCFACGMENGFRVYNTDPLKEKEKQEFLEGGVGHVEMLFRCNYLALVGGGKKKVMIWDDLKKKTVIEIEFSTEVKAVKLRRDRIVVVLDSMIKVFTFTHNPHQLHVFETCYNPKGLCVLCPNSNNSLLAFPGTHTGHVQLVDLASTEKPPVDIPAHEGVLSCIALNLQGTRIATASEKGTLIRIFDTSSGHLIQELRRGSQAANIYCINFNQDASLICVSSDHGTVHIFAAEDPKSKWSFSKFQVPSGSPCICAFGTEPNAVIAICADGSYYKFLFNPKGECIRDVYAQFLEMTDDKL

Binder | Kd [µM]
PRDGEPAVTQLHPGPIVVRDGYFSRPIGSTD [GB1-tagged WIR-peptide V1380A] | 36.9
PRDGEPQVTQLHPGPIVVRDGYFSRPIGSTD [GB1-tagged WIR-peptide V1380Q] | 14.1
PRDGEPVATQLHPGPIVVRDGYFSRPIGSTD [GB1-tagged WIR-peptide V1381A] | 75.9
PRDGEPVVAQLHPGPIVVRDGYFSRPIGSTD [GB1-tagged WIR-peptide T1382A] | 14.2

target: T1, WIPI3-Δloop; assay: ITC; remark: another data set of the same source

Binder | Kd [µM]
PRDGEPVQTQLHPGPIVVRDGYFSRPIGSTD [GB1-tagged WIR-peptide V1381Q] | 82
PRDGEPVVTQLHPGPIVQRDGYFSRPIGSTD [GB1-tagged WIR-peptide V1391Q] | 48.9
PRDGEPVVTQLHPGPIVVRAGYFSRPIGSTD [GB1-tagged WIR-peptide D1393A] | 44.4
PRDGEPVVTQLHPGPQVVRDGYFSRPIGSTD [GB1-tagged WIR-peptide I1389Q] | 379
PRDGEPVVQQLHPGPIVVRDGYFSRPIGSTD [GB1-tagged WIR-peptide T1382Q] | 37.2
PRDGEPVVTQLHPGPIVVRDGAFSRPIGSTD [GB1-tagged WIR-peptide Y1395A] | 391
